Test results as given in patent publication US20210009683A1.

T1: CLEC-2 on washed mouse platelet (mouse) (UniProt Q9JL99)
T1 sequence (looked up): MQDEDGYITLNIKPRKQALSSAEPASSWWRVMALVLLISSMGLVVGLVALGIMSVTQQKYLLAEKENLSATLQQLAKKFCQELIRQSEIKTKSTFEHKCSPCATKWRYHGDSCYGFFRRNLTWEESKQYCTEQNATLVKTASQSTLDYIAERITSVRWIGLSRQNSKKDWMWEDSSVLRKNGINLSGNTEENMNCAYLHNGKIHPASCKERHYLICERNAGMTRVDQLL


Molecular target: T1, CLEC-2 on washed mouse platelet (mouse)
Experiment: cell-based or functional assay

Row | platelet aggregation-starting time (light transmittance, washed mouse platelet mixed with CHO cells) | delay of the start of platelet aggregation against CHO/Aggrus-WT | Binder
1 | 6 min | – | wild-type human Aggrus expressed in CHO cells (CHO/Aggrus-WT) (ligand, UniProt Q86YL7 23-162, looked up) ASTGQPEDDTETTGLEGGVAMPGAEDDVVTPGTSEDRYKSGLTTLVATSVNSVTGIRIEDLPTSESTVHAQEQSPSATASNVATSHSTEKVDGDTQTTVEKDGLSTVTLVGIIVGVLLAIGFIGAIIVVVMRKMSGRYSP
2 | 14 min | 8 min | Aggrus-D48A expressed in CHO cells (CHO/Aggrus-D48A) (ligand, human, UniProt Q86YL7 23-162, looked up) ASTGQPEDDTETTGLEGGVAMPGAEADVVTPGTSEDRYKSGLTTLVATSVNSVTGIRIEDLPTSESTVHAQEQSPSATASNVATSHSTEKVDGDTQTTVEKDGLSTVTLVGIIVGVLLAIGFIGAIIVVVMRKMSGRYSP
